± gives the standard deviation of the averaged measurements.
Assays:
Saccharomyces cerevisiae [1] = assay: protein stability index of tFT-peptide fusion (C-terminal peptide) (PSI (0-1 scale)); higher = more stable (slower turnover); settings: genetic background: wild type; temperature: 30 C
Saccharomyces cerevisiae [2] = assay: as above
Description: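 MPS profiling in S. cerevisiae of the tFT-X12 degron library: putative degron peptides plus stable controls, 12 aa, fused to the C-terminus of a sfGFP-mCherry timer. Cells are FACS-sorted into 8 mCherry/sfGFP bins and deep-sequenced. PSI runs from 0 (unstable) to 1 (stable). Backgrounds are wild type, das1Δ and doa10Δ at 30 °C, and wild type, das1Δ, cdc34-1 and cdc53-1 at 37 °C; 2-3 technical replicates each.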

[3] = genetic background: cdc34-1, temperature: 37 C
[4] = genetic background: cdc53-1, temperature: 37 C
[5] = genetic background: das1 deletion, temperature: 30 C
[6] = genetic background: das1 deletion, temperature: 37 C
[7] = genetic background: doa10 deletion, temperature: 30 C
[8] = genetic background: wild type, temperature: 30 C
[9] = genetic background: wild type, temperature: 37 C
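Also: PSI is a weighted mean of sequencing reads over stability bins, variants kept only with over 10 reads, mCherry proximal and sfGFP distal, peptide attached via GGGS linker.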

Sequence	protein stability index (Saccharomyces cerevisiae [1])	protein stability index (Saccharomyces cerevisiae [2]; [3])	protein stability index (Saccharomyces cerevisiae [2]; [4])	protein stability index (Saccharomyces cerevisiae [2]; [5])	protein stability index (Saccharomyces cerevisiae [2]; [6])	protein stability index (Saccharomyces cerevisiae [2]; [7])	protein stability index (Saccharomyces cerevisiae [2]; [8])	protein stability index (Saccharomyces cerevisiae [2]; [9])
VACLRLTVYVMG	0.193 ± 0.028	0.0455 ± 0.0053	0.0789 ± 0.015	0.128 ± 0.025	0.231 ± 0.0037	0.101 ± 0.009	0.124 ± 0.03	0.204 ± 0.016
GIISMYVARRLG	0.285 ± 0.019	0.594 ± 0.037	0.689 ± 0.0079	0.661 ± 0.015	0.69833 ± 0.00068	0.149 ± 0.016	0.173 ± 0.034	0.3 ± 0.022
CSLRLCVRGAIV	0.0268 ± 0.022	0.667 ± 0.022	0.702 ± 0.021	0.602 ± 0.01	0.71597 ± 0.00049	0.586 ± 0.022	0.606 ± 0.0057	0.675 ± 0.024
VHNIDLFVVCYI	0.346 ± 0.0067	0.433 ± 0.025	0.443 ± 0.014	0.251 ± 0.047	0.482 ± 0.0094	0.222 ± 0.0048	0.258 ± 0.027	0.451 ± 0.015
VPWSKIAARLII	0.446 ± 0.068	0.6593 ± 0.0029	0.706 ± 0.011	0.618 ± 0.02	0.734 ± 0.022	0.227 ± 0.015	0.315 ± 0.054	0.5015 ± 0.0036
CACAVPFLLLFF	0.411 ± 0.025	0.474 ± 0.0077	0.519 ± 0.017	0.374 ± 0.022	0.505 ± 0.0063	0.497 ± 0.028	0.347 ± 0.032	0.494 ± 0.023
SRGLVPMANRYC	0.298 ± 0.045	0.659 ± 0.07	0.7383 ± 0.0028	0.656 ± 0.03	0.741 ± 0.018	0.142 ± 0.0075	0.16 ± 0.02	0.42 ± 0.014
FKFGVFDFRFLC	0.109 ± 0.06	0.451 ± 0.063	0.686 ± 0.031	0.623 ± 0.011	0.7617 ± 0.0049	0.0716 ± 0.0051	0.0879 ± 0.036	0.115 ± 0.031
LGLCFFFYSLHS	0.462 ± 0.0096	0.539 ± 0.064	0.58 ± 0.037	0.411 ± 0.041	0.586 ± 0.013	0.37 ± 0.0054	0.401 ± 0.016	0.599 ± 0.057
LIFLSISFISSL	0.295 ± 0.05	0.1 ± 0.0059	0.245 ± 0.049	0.168 ± 0.036	0.316 ± 0.028	0.104 ± 0.043	0.15 ± 0.037	0.286 ± 0.0096
AFAFLLHRFLLV	0.148 ± 0.017	0.493 ± 0.058	0.55 ± 0.0057	0.477 ± 0.018	0.584 ± 0.0064	0.103 ± 0.0047	0.11 ± 0.012	0.142 ± 0.011
RFYLFLFFVRST	0.175 ± 0.0048	0.302 ± 0.055	0.4403 ± 0.0022	0.316 ± 0.039	0.5488 ± 0.0049	0.113 ± 0.0039	0.11 ± 0.008	0.131 ± 0.012
GLSLVCWIVVLG	0.306 ± 0.014	0.153 ± 0.033	0.202 ± 0.066	0.189 ± 0.037	0.347 ± 0.017	0.1899 ± 0.0016	0.178 ± 0.032	0.318 ± 0.0055
IFFSLFFFFLCN	0.35 ± 0.056	0.353 ± 0.06	0.413 ± 0.0066	0.356 ± 0.027	0.526 ± 0.068	0.35 ± 0.03	0.289 ± 0.011	0.4212 ± 0.0014
QDFFYCLLVATS	0.317 ± 0.029	0.155 ± 0.0058	0.276 ± 0.015	0.21 ± 0.038	0.3605 ± 0.003	0.174 ± 0.0022	0.205 ± 0.03	0.305 ± 0.0038
FLLSFFGLVFFW	0.397 ± 0.0048	0.39 ± 0.029	0.437 ± 0.0046	0.37 ± 0.018	0.446 ± 0.0048	0.397 ± 0.0073	0.374 ± 0.014	0.449 ± 0.024
GGGGGGGGGGVG	0.514 ± 0.045	0.313 ± 0.019	0.427 ± 0.044	0.397 ± 0.014	0.457 ± 0.057	0.391 ± 0.004	0.387 ± 0.024	0.446 ± 0.03
TYCFRVCAWRAN	0.341 ± 0.016	0.603 ± 0.049	0.706 ± 0.021	0.583 ± 0.0094	0.677 ± 0.012	0.176 ± 0.0011	0.208 ± 0.026	0.396 ± 0.017
GPFVRSALIFIF	0.407 ± 0.018	0.535 ± 0.04	0.582 ± 0.045	0.467 ± 0.021	0.603 ± 0.034	0.304 ± 0.0055	0.343 ± 0.026	0.547 ± 0.022
RIKVTRRIIIYA	0.299 ± 0.011	0.335 ± 0.036	0.383 ± 0.07	0.239 ± 0.054	0.446 ± 0.014	0.14 ± 0.0072	0.179 ± 0.022	0.302 ± 0.018

Sequence	protein stability index (Saccharomyces cerevisiae [1])	protein stability index (Saccharomyces cerevisiae [2]; [3])	protein stability index (Saccharomyces cerevisiae [2]; [4])	protein stability index (Saccharomyces cerevisiae [2]; [5])	protein stability index (Saccharomyces cerevisiae [2]; [6])	protein stability index (Saccharomyces cerevisiae [2]; [7])	protein stability index (Saccharomyces cerevisiae [2]; [8])	protein stability index (Saccharomyces cerevisiae [2]; [9])
AWLWCVCWSIMR	0.395 ± 0.025	0.389 ± 0.017	0.414 ± 0.013	0.317 ± 0.034	0.502 ± 0.024	0.373 ± 0.028	0.323 ± 0.021	0.453 ± 0.0073
LASFCSVCIFIS	0.163 ± 0.029	0.224 ± 0.0054	0.31 ± 0.014	0.238 ± 0.017	0.429 ± 0.0071	0.099 ± 0.0025	0.127 ± 0.033	0.17 ± 0.012
CPPPCPLYMLLC	0.264 ± 0.025	0.506 ± 0.03	0.614 ± 0.041	0.536 ± 0.03	0.6121 ± 0.0031	0.163 ± 0.017	0.17 ± 0.024	0.171 ± 0.013
GCRLRHRLVRIV	0.2105 ± 0.0013	0.517 ± 0.038	0.646 ± 0.052	0.604 ± 0.035	0.6902 ± 0.0065	0.109 ± 0.048	0.119 ± 0.044	0.201 ± 0.011
SIPVWTIELFAT	0.469 ± 0.037	0.555 ± 0.022	0.627 ± 0.012	0.428 ± 0.026	0.6153 ± 0.0042	0.335 ± 0.022	0.368 ± 0.035	0.537 ± 0.039
GGGVGVAVVLFW	0.417 ± 0.016	0.432 ± 0.024	0.501 ± 0.012	0.34 ± 0.027	0.53 ± 0.011	0.308 ± 0.011	0.342 ± 0.02	0.5056 ± 0.0016
YSCFFFLFSFFF	0.4853 ± 0.0041	0.498 ± 0.023	0.56 ± 0.016	0.429 ± 0.027	0.5552 ± 0.0024	0.423 ± 0.022	0.406 ± 0.0031	0.50243 ± 1.8e-05
FLSRHFLFLSFV	0.409 ± 0.016	0.467 ± 0.036	0.489 ± 0.047	0.505 ± 0.019	0.6779 ± 0.0061	0.4114 ± 0.0017	0.308 ± 0.031	0.443 ± 0.006
VFCLPISAPPLH	0.685 ± 0.023	0.679 ± 0.0083	0.739 ± 0.022	0.642 ± 0.023	0.727 ± 0.0031	0.626 ± 0.02	0.635 ± 0.019	0.7027 ± 0.0031
VCLLFRFCCWFW	0.371 ± 0.017	0.351 ± 0.024	0.357 ± 0.0081	0.305 ± 0.013	0.461 ± 0.02	0.331 ± 0.025	0.304 ± 0.01	0.414 ± 0.03
HSPRVLLPLYFR	0.378 ± 0.086	0.199 ± 0.064	0.133 ± 0.013	0.301 ± 0.035	0.365 ± 0.033	0.672 ± 0.02	0.278 ± 0.037	0.328 ± 0.021
LFRNIFLFVFLI	0.306 ± 0.029	0.267 ± 0.029	0.229 ± 0.0072	0.362 ± 0.021	0.468 ± 0.012	0.334 ± 0.0071	0.241 ± 0.02	0.307 ± 0.016
FYTYILTVAEAL	0.482 ± 0.015	0.518 ± 0.041	0.583 ± 0.04	0.457 ± 0.021	0.531 ± 0.013	0.454 ± 0.0094	0.455 ± 0.014	0.5273 ± 0.0011
LSFFDYVLLQIA	0.285 ± 0.01	0.556 ± 0.03	0.58 ± 0.029	0.462 ± 0.032	0.635 ± 0.0073	0.166 ± 0.013	0.199 ± 0.028	0.317 ± 0.027
CFFPLFLCTAFC	0.425 ± 0.017	0.465 ± 0.027	0.4713 ± 0.0024	0.394 ± 0.023	0.513 ± 0.011	0.387 ± 0.0062	0.39 ± 0.0053	0.492 ± 0.022
LDFPPLRLILRL	0.538 ± 0.064	0.601 ± 0.019	0.609 ± 0.0072	0.584 ± 0.035	0.6464 ± 0.0014	0.658 ± 0.017	0.538 ± 0.049	0.6071 ± 0.0026
FCCFFPFLWRVF	0.378 ± 0.018	0.593 ± 0.028	0.609 ± 0.034	0.541 ± 0.013	0.663 ± 0.017	0.317 ± 0.009	0.322 ± 0.016	0.455 ± 0.0052
DFHLPWPVALVW	0.387 ± 0.039	0.134 ± 0.02	0.144 ± 0.016	0.217 ± 0.018	0.277 ± 0.0039	0.188 ± 0.0067	0.208 ± 0.026	0.24 ± 0.013
LLVVFSCFTFMF	0.38 ± 0.037	0.259 ± 0.0096	0.399 ± 0.042	0.277 ± 0.032	0.476 ± 0.0058	0.254 ± 0.027	0.279 ± 0.028	0.449 ± 0.022

Reference: the supplement of paper PMC10724198
